Data taken from article doi:10.1101/2025.02.14.638281 (bioRxiv, 2025).
“And” between values parts separate entries of the source, which are not always exact repeats. Identical values can stand only once.

Target: the molecule itself
Test: SEC

B1: Synechocystis sp. PCC 6803 fructose-1,6-bisphosphatase (FBPase; slr0952) (enzyme, UniProt P74324 1-347, looked up)
chain: MTVSEIHIPNSLLDRDCTTLSRHVLQQLNSFGADAQDLSAIMNRIALAGKLIARRLSRAGLMADVLGFTGETNVQGESVKKMDVFANDVFISVFKQSGLVCRLASEEMEKPYYIPENCPIGRYTLLYDPIDGSSNVDINLNVGSIFAIRQQEGDDLDGSASDLLANGDKQIAAGYILYGPSTILVYSLGSGVHSFILDPSLGEFILAQENIRIPNHGPIYSTNEGNFWQWDEALRDYTRYVHRHEGYTARYSGALVGDIHRILMQGGVFLYPGTEKNPDGKLRLLYETAPLAFLVEQAGGRASDGQKRLLDLIPSKLHQRTPAIIGSAEDVKLVESFISDHKQRQGN
stoichiometry N: 12 and 4
